B1: TAF443 (PDGFRβ-GS10-anti-VEGF-A heavy chain (L443C)/anti-VEGF-A light chain) (other)
heavy: LVVTPPGPELVLNVSSTFVLTCSGSAPVVWERMSQEPPQEMAKAQDGTFSSVLTLTNLTGLDTGEYFCTHNDSRGLETDERKRLYIFVPDPTVGFLPNDAEELFIFLTEITEITIPCRVTDPQLVVTLHEKKGDVALPVPYDHQRGFSGIFEDRSYICKTTIGDREVDSDAYYVYRLQVSSINVSVNAVQTVVRQGENITLMCIVIGNEVVNFEWTYPRKESGRLVEPVTDFLLDMPYHIRSILHIPSAELEDSGTYTCNVTESVNDHQDEKAINITVVESGGGGGSGGGGSEVQLVESGGGLVQPGGSLRLSCAASGYDFTHYGMNWVRQAPGKGLEWVGWINTYTGEPTYAADFKRRFTFSLDTSKSTAYLQMNSLRAEDTAVYYCAKYPYYYGTSHWYFDVWGQGTLVTVSSASTKGPSVFPLAPSSKSTSGGTAALGCLVKDYFPEPVTVSWNSGALTSGVHTFPAVLQSSGLYSLSSVVTVPSSSLGTQTYICNVNHKPSNTKVDKKVEPKSCDKTHTCPPCPAPEAAGAPSVFLFPPKPKDTLMISRTPEVTCVVVDVSHEDPEVKFNWYVDGVEVHNAKTKPREEQYNSTYRVVSVLTVLHQDWLNGKEYKCKVSNKALPAPIEKTISKAKGQPREPQVYTLPPSREEMTKNQVSLTCLVKGFYPSDIAVEWESNGQPENNYKTTPPVLDSDGSFFLYSKLTVDKSRWQQGNVFSCSVMHEALHNHYTQKSLSCSPGK
light: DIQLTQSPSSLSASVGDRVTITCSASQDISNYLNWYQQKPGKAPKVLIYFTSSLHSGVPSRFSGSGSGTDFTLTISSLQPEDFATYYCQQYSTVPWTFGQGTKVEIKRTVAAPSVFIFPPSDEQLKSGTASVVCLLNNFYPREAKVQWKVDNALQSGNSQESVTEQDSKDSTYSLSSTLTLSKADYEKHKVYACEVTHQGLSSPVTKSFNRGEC
notes: also called OG1321; TAF-443C
B2: TAF (PDGFRβ-GS10-anti-VEGF-A heavy chain/anti-VEGF-A light chain) (other)
heavy: LVVTPPGPELVLNVSSTFVLTCSGSAPVVWERMSQEPPQEMAKAQDGTFSSVLTLTNLTGLDTGEYFCTHNDSRGLETDERKRLYIFVPDPTVGFLPNDAEELFIFLTEITEITIPCRVTDPQLVVTLHEKKGDVALPVPYDHQRGFSGIFEDRSYICKTTIGDREVDSDAYYVYRLQVSSINVSVNAVQTVVRQGENITLMCIVIGNEVVNFEWTYPRKESGRLVEPVTDFLLDMPYHIRSILHIPSAELEDSGTYTCNVTESVNDHQDEKAINITVVESGGGGGSGGGGSEVQLVESGGGLVQPGGSLRLSCAASGYDFTHYGMNWVRQAPGKGLEWVGWINTYTGEPTYAADFKRRFTFSLDTSKSTAYLQMNSLRAEDTAVYYCAKYPYYYGTSHWYFDVWGQGTLVTVSSASTKGPSVFPLAPSSKSTSGGTAALGCLVKDYFPEPVTVSWNSGALTSGVHTFPAVLQSSGLYSLSSVVTVPSSSLGTQTYICNVNHKPSNTKVDKKVEPKSCDKTHTCPPCPAPEAAGAPSVFLFPPKPKDTLMISRTPEVTCVVVDVSHEDPEVKFNWYVDGVEVHNAKTKPREEQYNSTYRVVSVLTVLHQDWLNGKEYKCKVSNKALPAPIEKTISKAKGQPREPQVYTLPPSREEMTKNQVSLTCLVKGFYPSDIAVEWESNGQPENNYKTTPPVLDSDGSFFLYSKLTVDKSRWQQGNVFSCSVMHEALHNHYTQKSLSLSPGK
light: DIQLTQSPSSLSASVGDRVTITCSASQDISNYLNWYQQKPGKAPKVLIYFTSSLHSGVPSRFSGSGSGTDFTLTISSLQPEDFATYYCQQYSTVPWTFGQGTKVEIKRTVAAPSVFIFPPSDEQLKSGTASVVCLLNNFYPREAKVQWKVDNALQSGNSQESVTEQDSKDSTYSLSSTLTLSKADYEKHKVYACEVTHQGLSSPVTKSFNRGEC
modifications: Glycosylated PDGFR segment. The molecule is a dimer of two fusion heavy chains and two light chains.
notes: PDGFR-beta trap fused to the N-terminus of an anti-VEGF-A IgG1 heavy chain; also called TAF-WT; TAFwt
B3: TAF443-6A250K (other)
heavy: LVVTPPGPELVLNVSSTFVLTCSGSAPVVWERMSQEPPQEMAKAQDGTFSSVLTLTNLTGLDTGEYFCTHNDSRGLETDERKRLYIFVPDPTVGFLPNDAEELFIFLTEITEITIPCRVTDPQLVVTLHEKKGDVALPVPYDHQRGFSGIFEDRSYICKTTIGDREVDSDAYYVYRLQVSSINVSVNAVQTVVRQGENITLMCIVIGNEVVNFEWTYPRKESGRLVEPVTDFLLDMPYHIRSILHIPSAELEDSGTYTCNVTESVNDHQDEKAINITVVESGGGGGSGGGGSEVQLVESGGGLVQPGGSLRLSCAASGYDFTHYGMNWVRQAPGKGLEWVGWINTYTGEPTYAADFKRRFTFSLDTSKSTAYLQMNSLRAEDTAVYYCAKYPYYYGTSHWYFDVWGQGTLVTVSSASTKGPSVFPLAPSSKSTSGGTAALGCLVKDYFPEPVTVSWNSGALTSGVHTFPAVLQSSGLYSLSSVVTVPSSSLGTQTYICNVNHKPSNTKVDKKVEPKSCDKTHTCPPCPAPEAAGAPSVFLFPPKPKDTLMISRTPEVTCVVVDVSHEDPEVKFNWYVDGVEVHNAKTKPREEQYNSTYRVVSVLTVLHQDWLNGKEYKCKVSNKALPAPIEKTISKAKGQPREPQVYTLPPSREEMTKNQVSLTCLVKGFYPSDIAVEWESNGQPENNYKTTPPVLDSDGSFFLYSKLTVDKSRWQQGNVFSCSVMHEALHNHYTQKSLSCSPGK
light: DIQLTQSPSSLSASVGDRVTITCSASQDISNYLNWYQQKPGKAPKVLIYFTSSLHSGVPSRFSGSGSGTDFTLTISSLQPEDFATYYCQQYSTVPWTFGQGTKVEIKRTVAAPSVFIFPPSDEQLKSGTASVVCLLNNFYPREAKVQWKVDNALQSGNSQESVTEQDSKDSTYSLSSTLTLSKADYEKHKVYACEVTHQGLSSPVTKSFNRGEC
modifications: polymer conjugate, label 6A250K; polymer and attachment site not described for this conjugate
notes: also called R3643-6A
B4: TAF347 (PDGFRβ-GS10-anti-VEGF-A heavy chain (Q347C)/anti-VEGF-A light chain) (other)
heavy: LVVTPPGPELVLNVSSTFVLTCSGSAPVVWERMSQEPPQEMAKAQDGTFSSVLTLTNLTGLDTGEYFCTHNDSRGLETDERKRLYIFVPDPTVGFLPNDAEELFIFLTEITEITIPCRVTDPQLVVTLHEKKGDVALPVPYDHQRGFSGIFEDRSYICKTTIGDREVDSDAYYVYRLQVSSINVSVNAVQTVVRQGENITLMCIVIGNEVVNFEWTYPRKESGRLVEPVTDFLLDMPYHIRSILHIPSAELEDSGTYTCNVTESVNDHQDEKAINITVVESGGGGGSGGGGSEVQLVESGGGLVQPGGSLRLSCAASGYDFTHYGMNWVRQAPGKGLEWVGWINTYTGEPTYAADFKRRFTFSLDTSKSTAYLQMNSLRAEDTAVYYCAKYPYYYGTSHWYFDVWGQGTLVTVSSASTKGPSVFPLAPSSKSTSGGTAALGCLVKDYFPEPVTVSWNSGALTSGVHTFPAVLQSSGLYSLSSVVTVPSSSLGTQTYICNVNHKPSNTKVDKKVEPKSCDKTHTCPPCPAPEAAGAPSVFLFPPKPKDTLMISRTPEVTCVVVDVSHEDPEVKFNWYVDGVEVHNAKTKPREEQYNSTYRVVSVLTVLHQDWLNGKEYKCKVSNKALPAPIEKTISKAKGQPREPCVYTLPPSREEMTKNQVSLTCLVKGFYPSDIAVEWESNGQPENNYKTTPPVLDSDGSFFLYSKLTVDKSRWQQGNVFSCSVMHEALHNHYTQKSLSLSPGK
light: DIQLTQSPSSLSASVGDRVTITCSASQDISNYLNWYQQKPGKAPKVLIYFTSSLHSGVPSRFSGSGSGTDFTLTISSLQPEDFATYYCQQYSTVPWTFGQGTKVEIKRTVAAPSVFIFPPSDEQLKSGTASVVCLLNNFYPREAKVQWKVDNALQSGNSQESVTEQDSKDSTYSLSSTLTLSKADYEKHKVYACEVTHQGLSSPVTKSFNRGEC
notes: Same as TAF except for Q347C (EU numbering); also called TAF-347C
B5: aflibercept (Fc fusion, UniProt P17948 129-230, looked up, not shown: a dimerising Fc or GST)
chain: SDTGRPFVEMYSEIPEIIHMTEGRELVIPCRVTSPNITVTLKKFPLDTLIPDGKRIIWDSRKGFIISNATYKEIGLLTCEATVNGHLYKTNYLTHRQTNTIIDVVLSPSHGIELSVGEKLVLNCTARTELNVGIDFNWEYPSSKHQHKKLVNRDLKTQSGSEMKKFLSTLTIDGVTRSDQGLYTCAASSGLMTKKNSTFVRVHEK
B6: rhVEGFA-165 (ligand, human, UniProt P15692-4 27-191, looked up)
chain: APMAEGGGQNHHEVVKFMDVYQRSYCHPIETLVDIFQEYPDEIEYIFKPSCVPLMRCGGCCNDEGLECVPTEESNITMQIMRIKPHQGQHIGEMSFLQHNKCECRPKKDRARQENPCGPCSERRKHLFVQDPQTCKCSCKNTDSRCKARQLELNERTCRCDKPRR
modifications: biotinylated in Example 34

Experiments:
[1] = target: T1, recombinant human PDGF-BB (human, UniProt P01127 82-190); assay: optical biosensor (Proteon XPR36 / Biacore 2000), binder amine-coupled, rhPDGF-BB injected, 25 C
T1 construct: also called rhPDGF-BB; rhPDGFBB
Method: (§1) Binding studies were performed at 25° C. and 37° C. using BioRad Proteon XPR36 and Biacore 2000 optical biosensors equipped with GLM (Proteon) and CM4 (Biacore) sensor chips and equilibrated with running buffer (10 m/M HEPES, 150 mM NaCl, 0.005% Teen-20, 0.2 mg/ml BSA).

[2] = target: T1, recombinant human PDGF-BB; assay: competitive ELISA: binder preincubated with 0.2 nM rhPDGF-BB, competitor immobilized PDGFR/Fc
[3] = target: T1, recombinant human PDGF-BB; assay: SPR (Biacore T200, 25 C), binder captured by anti-human IgG, PDGF-BB as analyte, average +/- SD of the runs
Method: (§2) Each PDGF/VEGF variant was captured to a level of approximately 150 RUs. The running and sample buffer for the PDGF analysis was HBS-EP+300mM NaCl (10 mM 4-(2-hydroxyethyl)-1-piperazineethanesulfonic acid (HEPES) pH 7.4, 300 mM NaCl, 3mM ethylenediaminetetraacetic acid (EDTA), 0.05% (v/v) Tween-20). […] The surface was then regenerated with a 30 second pulse of 3M MgCl₂, a 30 second pulse of an ionic regeneration buffer (0.46M KSCN, 1.83 M MgCl2, 0.92 M urea, and 1.83 M guanidine-HCI pH7.4, Andersson et al., Analytical Chemistry, 1999) and then equilibrated with a 30 second pulse of HBS-EP+ 300 mM NaCl running buffer.
(§3) All SPR assays were performed at 25° C. with a data collection rate of1Hz using a Biacore T200 instrument (GE Healthcare). The resulting PDGP and VEGP sensorgrams were double referenced using both a control surface and buffer injections. The rate constants were determined by fitting the data to a 1:1 Langmuir model with Biacore T200 evaluation software v2.0 and the equation […].

[4] = target: T1, recombinant human PDGF-BB; assay: SPR (Biacore T200, 25 C), binder captured by anti-human IgG, PDGF-BB as analyte, run A
Method: as §2, §3

[5] = target: T1, recombinant human PDGF-BB; assay: SPR (Biacore T200, 25 C), binder captured by anti-human IgG, PDGF-BB as analyte, run B
Method: as §2, §3

[6] = target: T1, recombinant human PDGF-BB; assay: cell-based or functional assay
[7] = target: T1, recombinant human PDGF-BB; assay: SPR (Biacore T200, 25 C), binder captured by anti-human IgG, PDGF-BB as analyte, run C
Method: as §2, §3

rhVEGFA-165 = target: B6; assay: cell-based or functional assay
aflibercept = target: B5; assay: optical biosensor (Proteon XPR36 / Biacore 2000), binder amine-coupled, rhVEGFA-165 injected, 25 C
Method: as §1
Binding of the coupled proteins to the ligands was determined by standard methodology.

T1 sequence (P01127 82-190): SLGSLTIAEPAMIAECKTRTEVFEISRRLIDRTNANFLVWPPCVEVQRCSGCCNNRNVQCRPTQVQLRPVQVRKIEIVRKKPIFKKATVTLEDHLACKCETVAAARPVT

Row | Binder | Kd [1] | IC50 [2] | Kd [3] | Kd [4] | koff [4] | kon [4] | t½ [4] | Kd [5] | koff [5] | kon [5] | t½ [5] | Inhibition of PDGF induced proliferation of HPVPs, IC50 [6] | Kd [7] | koff [7] | kon [7] | t½ [7] | Inhibition of VEGF induced proliferation of HRMVECs, IC50 (rhVEGFA-165) | Kd (aflibercept)
1 | B1 | 14 pM | 46 pM | 1.55 pM | 1.54 pM | 4.96e-05 s⁻¹ | 3.22e+07 M⁻¹ s⁻¹ | 3.89 h | 1.56 pM | 8.76e-05 s⁻¹ | 5.62e+07 M⁻¹ s⁻¹ | 2.2 h | 5000 pM | – | – | – | – | – | –
2 | B2 | – | – | 1.1 pM | 1.01 pM | 8.01e-05 s⁻¹ | 7.97e+07 M⁻¹ s⁻¹ | 2.4 h | 1.15 pM | 9.19e-05 s⁻¹ | 8.01e+07 M⁻¹ s⁻¹ | 2.09 h | – | 1.19 pM | 0.000103 s⁻¹ | 8.65e+07 M⁻¹ s⁻¹ | 1.87 h | – | –
3 | B3 | – | – | 1.3 pM | 1.25 pM | 9.46e-05 s⁻¹ | 7.6e+07 M⁻¹ s⁻¹ | 2.03 h | 1.04 pM | 5.85e-05 s⁻¹ | 5.62e+07 M⁻¹ s⁻¹ | 3.29 h | – | 1.47 pM | 5.13e-05 s⁻¹ | 3.48e+07 M⁻¹ s⁻¹ | 3.76 h | – | –
4 | B4 | – | – | 1.7 pM | 2.03 pM | 8.41e-05 s⁻¹ | 4.15e+07 M⁻¹ s⁻¹ | 2.29 h | 1.35 pM | 7.87e-05 s⁻¹ | 5.82e+07 M⁻¹ s⁻¹ | 2.45 h | – | – | – | – | – | – | –
5 | B5 | – | – | – | – | – | – | – | – | – | – | – | – | – | – | – | – | 550 pM | –
6 | B6 | – | – | – | – | – | – | – | – | – | – | – | – | – | – | – | – | – | 1.56 pM

Reference: patent US20180244762A1 (KODIAK SCIENCES, published 2018)
